Data published in patent US20220041692A1.
Bridge positions count the residues as written; N and C are the ends. Ends that are not written are not given here.

Molecular target: polyclonal mouse anti-TSHR antibodies contained in sera from Ad-TSHR-immunized mice
Experiment: competition ELISA: sera pre-incubated with peptide 19, binding of polyclonal anti-TSHR antibodies to coated TSHR-Fc

IC50: 20 nM
Binder: CHQEEDFRVTC (disulfide 1-11) [cyclic peptide 19]
